Experimental data from publication PMC5730154.

Target: T1, PamR (YdcH) (Bacillus subtilis 168) (UniProt P96625)
T1 sequence: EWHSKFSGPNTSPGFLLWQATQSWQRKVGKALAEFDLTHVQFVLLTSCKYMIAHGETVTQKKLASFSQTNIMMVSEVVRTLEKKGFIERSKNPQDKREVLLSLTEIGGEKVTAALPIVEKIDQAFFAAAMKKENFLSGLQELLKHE
Assay: EMSA
Conditions: 20 mM NaPO4 pH 7, 50 mM NaCl, 5 mM MgCl2, 10% glycerol, 0.1 ug/ul salmon sperm DNA, 10 min at room temperature; 4% native acrylamide gel

Row | Sequence | binding
1 | AATGTTCCTTCCGTTCCATTTTGAAATTGTCCTTTCAAAGAATCTGATGCAATACCCGTCTCCCATTGATCCATTGTTTCTGTTTCCTGATAACAGTTCCAGGTTTTCCCACATCCACATCAGCTATCGCTGTGTATTCATAATTCCACATCCCATAAGCTCCCAGAATGATAAGTTCACTTATTAATTATAATAAGCGCACTTATTAATAGTCAACCGCAAAAAAAAGAAGCCGGATGTCCAGCTTCTTTTTCTGGTTTTTTAGGACAGCTGTCCGAGAATATAGGTCAGGT (double strand) [PydcF wt 293 bp] | binds
2 | ACCTGACCTATATTCTCGGACAGCTGTCCTAAAAAACCAGAAAAAGAAGCTGGACATCCGGCTTCTTTTTTTTGCGGTTGACTATATTATTCTGCGCTTATTATAATTAATAAGTGAACTTATCATTCTGGGAGCTTATGGGATGTGGAATTATGAATACACAGCGATAGCTGATGTGGATGTGGGAAAACCTGGAACTGTTATCAGGAAACAGAAACAATGGATCAATGGGAGACGGGTATTGCATCAGATTCTTTGAAAGGACAATTTCAAAATGGAACGGAAGGAACATT (double strand) [PydcF IR1* mutant] | binds more weakly
